Results on one substance are retold here after PMC3383726.

pIC50: −log10 of the molar value.

In the assay the target is chimera of the human sst5 receptor with the carboxyl-terminal tail of the human sst2 receptor (hsst5-sst2CT) (human). The experiment in a line: radioligand binding; competition against 0.05 nM [125I-Tyr11]-SS-14 on membrane preparations (30 µg protein) of stably transfected HEK293 cells; competitor 10^-12 to 10^-6 M; 10 mM HEPES, 5 mM MgCl2, 5 µg/ml bacitracin, pH 7.5; 45 min, room temperature; vacuum filtration.

Regarding “Somatostatin (SS-14) (from UniProt P61278 103-116) (peptide)”, the pIC50 (usually −log10 of the IC50, conventionally taken in molar units) is 7.52.
